The experiment concerns the target Omicron BA.1.1 spike trimer (includes the R346K mutation) (SARS-CoV-2) (UniProt P0DTC2). Kind of experiment: Luminex spike-ACE2 surrogate neutralization assay.

As to P5C3 LS monoclonal antibody, the percent inhibition of ACE2 binding at 20 µg ml^−1 was 100%.
